Derived count rate in 100 mM KGlu relative to 100 mM KCl and abundance of mesoscale clusters in 100 mM KGlu relative to 100 mM KCl data for two molecules are collected here from article PMC10543311.

Holding throughout (conditions): remark: other sources report otherwise
Assay [1] deals with T1, SNAP-tagged FUS (Fused in sarcoma), P35637.
T1 chain: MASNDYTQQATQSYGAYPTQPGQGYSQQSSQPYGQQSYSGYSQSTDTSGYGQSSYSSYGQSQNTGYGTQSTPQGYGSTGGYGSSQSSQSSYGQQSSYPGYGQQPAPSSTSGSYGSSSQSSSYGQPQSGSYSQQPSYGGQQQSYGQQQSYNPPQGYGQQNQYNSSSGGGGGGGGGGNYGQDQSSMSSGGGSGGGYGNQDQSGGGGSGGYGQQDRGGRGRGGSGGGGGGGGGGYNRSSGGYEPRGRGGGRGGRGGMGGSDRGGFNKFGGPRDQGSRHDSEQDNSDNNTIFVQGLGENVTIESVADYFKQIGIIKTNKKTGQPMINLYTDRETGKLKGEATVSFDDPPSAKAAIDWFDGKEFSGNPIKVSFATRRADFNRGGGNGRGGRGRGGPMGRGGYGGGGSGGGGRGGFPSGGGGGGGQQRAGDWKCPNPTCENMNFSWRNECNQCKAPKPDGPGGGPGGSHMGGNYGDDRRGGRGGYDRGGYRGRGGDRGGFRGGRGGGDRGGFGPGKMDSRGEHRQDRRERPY
The assay is described as follows: dynamic light scattering (DLS); derived count rate and size distributions in sub-saturated solutions; 20 mM Tris.Glu pH 7.4, 100 mM KGlu (with residual KCl from the stock), 25 °C; self-association into clusters.

Assay [2] deals with T1, SNAP-tagged FUS (Fused in sarcoma), …. The assay is described as follows: nanoparticle tracking analysis (NTA); mesoscale clusters in sub-saturated solutions; 100 mM KGlu and 100 mM KCl, 25 °C, recorded 6 minutes after sample preparation.
Assay [3] concerns the target T2, untagged FUS (Fused in sarcoma), P35637.
T2 chain: T1 chain
The assay is described as above.

B1: SNAP-tagged FUS (Fused in sarcoma), P35637 1-526 (natural protein)
chain: T1 chain
modifications: here or on the partner: Alexa 488 (AF488) or Alexa 647 (AF647) label in the smFRET and FCS experiments; unlabelled elsewhere; Alexa 488 (AF488) or Alexa 647 (AF647) label in the smFRET and FCS experiments; unlabelled elsewhere
As for B1, the derived count rate in 100 mM KGlu relative to 100 mM KCl in assay [1] was less than 3 fold. Moreover, the abundance of mesoscale clusters in 100 mM KGlu relative to 100 mM KCl in assay [2] was determined as 4 fold.

B2: untagged FUS (Fused in sarcoma), P35637 1-526 (natural protein)
chain: T1 chain
On to B2, for which, in assay [3], the abundance of mesoscale clusters in 100 mM KGlu relative to 100 mM KCl came out at 4 fold.
